The record followed here is US20240325495A1, “FUSION PROTEINS FOR THE TREATMENT OF DISEASE” (Bristol-Myers Squibb Company, priority 2020, published 2024).

Data set [1] has as its target IL-2Rβγ (as a pre-assembled heterodimer). The data set is described as follows: Binding affinity to rat IL-2Rβγ.
The nature of data set [2]: Nonclinical pharmacokinetics in monkeys. It is filed as in vivo. The procedure: (§1) Various in vitro and in vivo studies were conducted to characterize the PK of BMS-986326 in the nonclinical setting.
In data set [3] the test system is monkeys. The experiment in a line: Pivotal single-dose IV toxicity and cardiovascular safety study in monkeys. It is filed as in vivo. An excerpt:
The single- and repeat-dose toxicity of BMS-986326 were characterized in a series of studies in rats for up to 2 weeks and in monkeys up to 12 weeks using selected dosing frequencies. Pivotal good laboratory practice (GLP) repeat-dose studies in both species employed SC administration of BMS-986326 and consisted of two 2-week studies in rats using differing dose frequencies (once weekly [QW] vs twice weekly [2QW]), a 2-week once weekly dosing study in monkeys, and a 12-week (once every 3 week, Q3W) dosing study in monkeys. In addition, single-dose exploratory studies were initially completed in both rats and monkeys to explore the tolerability of BMS-986326, and a single-dose GLP IV toxicity and cardiovascular safety study was also completed in telemeterized monkeys using IV dosing to support IV administration in the first-in-human (FIH) single-ascending dose (SAD) study (IM034001).
Microscopically, there were dose-dependent multisystemic infiltrates of eosinophils and mononuclear cells in some tissues.

Data set [4] deals with monkeys. The data set is described as follows: 2-week toxicity study in monkeys, weekly SC.
Data set [5] is described as follows: Linker-cleavage in human serum in vitro (LC-MS/MS). It is filed as in vitro ADME. As to conditions: up to 72 hours. The procedure: as §1

By Kd is commonly meant the equilibrium constant for the complex coming apart. For orientation: NOAEL means the highest dose or exposure tested at which no adverse effect was seen.

“BMS-986326: recombinant fusion protein of human IL2 and extracellular domain of human CD25, (GGGS)3 linker, non-covalent self-blocking homodimer”: the Kd in data set [1] was above 4 µM. For the same substance, the “total serum clearance (CLTs)” value in data set [2] amounted to 18.5 mL/day/kg. The “steady-state volume of distribution (Vss)” value in data set [2] (IV) was determined as 0.0734 L/kg. In data set [2] (SC dosing), the absolute bioavailability was 46%, the “apparent elimination half-life (T-HALF)” value was determined as 79.2 h and the “time of maximum concentration (Tmax)” value is 24 h. Also, in the data set on monkeys [3] (monkey, in vivo, iv), the “blood pressure, CLS-like effects, hemodynamic and electrocardiographic parameters” value is “no decreases in blood pressure, CLS-like effects, or other effects on hemodynamic or electrocardiographic parameters”; the increase in eosinophils entry is listed as “up to 91.6 ×”; the “mean AUC [0-336 h] across all doses” value was at most 757 µg·h/mL. Further, in the data set on monkeys [3] (monkey, in vivo, iv, 0.5 mg/kg), the “increased heart rate relative to baseline” value was 4% and the “transient increase in mean body temperature” value is “up to 1.1 °C”. In the data set on monkeys [3] (monkeys, single IV 0.05, 0.15 or 0.5 mg/kg), the clinical tolerability entry is “clinically well tolerated at all doses”. Also, in the data set on monkeys [3] (monkeys, single IV dose), the “no-observed-adverse-effect level (NOAEL)” value came to 0.5 mg/kg. Besides, the “NOAEL AUC[0-336 hours]” value with monkeys [3] (single-dose monkey toxicology study) is reported as at most 757 μ·h/ml. Further, the “mean AUC[0-168 h] at NOAEL” value in the data set with monkeys [4] (0.125 mg/kg/week) is 132 µg·h/mL. The same substance came in with an NOAEL in the data set with monkeys [4] (2-week weekly SC) of 0.125 mg/kg/week. In the data set on monkeys [4] (weekly SC, 2 weeks), this substance registered a clinically tolerated doses of at most 0.25 mg/kg. Moreover, the linker-cleavage entry in data set [5] is given as “did not show signs of linker-cleavage”.
